According to article PMC9769723:

How the values were obtained:
[1] = target: Trichococcus flocculiformis photolyase (TfPHR), class 2 cyclobutane pyrimidine dimer (CPDII) photolyase (Trichococcus flocculiformis); assay: ITC; MicroCal ITC200; both proteins in sonication buffer (150 mM NaCl, 50 mM Tris-HCl pH 7.0) with 0.02% DDM; which protein was in the syringe is not given
[2] = target: Trichococcus flocculiformis photolyase (TfPHR), class 2 cyclobutane pyrimidine dimer (CPDII) photolyase (Trichococcus flocculiformis); assay: shift of the absorption spectrum of the rhodopsin after mixing; purified TfHeR and TfPHR mixed at a 1:4 molar ratio, time-dependent absorption spectra (UV-2450 spectrometer)
[3] = target: NpSRII (Natronomonas pharaonis) (UniProt P42196); conditions: cited from earlier work
[4] = target: Trichococcus flocculiformis photolyase (TfPHR), class 2 cyclobutane pyrimidine dimer (CPDII) photolyase (Trichococcus flocculiformis)

UniProt P42196, sequence (P42196 whole entry): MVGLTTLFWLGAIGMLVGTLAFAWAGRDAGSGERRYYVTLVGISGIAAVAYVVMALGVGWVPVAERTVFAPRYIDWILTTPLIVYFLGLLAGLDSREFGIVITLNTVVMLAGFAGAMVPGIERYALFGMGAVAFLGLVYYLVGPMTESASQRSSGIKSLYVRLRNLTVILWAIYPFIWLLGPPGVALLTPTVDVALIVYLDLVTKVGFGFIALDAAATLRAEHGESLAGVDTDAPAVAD

| Kd [1] [µM] | shift of the absorption maximum after mixing (blue shift) [2] [nm] | dH [1] [kcal/mol] | Substance | Kd [3] [µM] | in vitro repair of UV-damaged oligo(dT)20 by TfPHR under white light (absorbance at 265 nm), with TfHeR against TfPHR alone, at saturation [4] [fold] |
| --- | --- | --- | --- | --- | --- |
| 121 | 4 |  | TfHeR E97Q mutant (natural protein) |  |  |
|  |  |  | NpHtrII (from UniProt P42259) | 0.65 |  |
| 22 | 8 | -18.8 | Trichococcus flocculiformis heliorhodopsin (TfHeR) (natural protein) |  | 3 |
